B1: HBB TATA WT (dsDNA)
DNA 1: CAGGGCTGGGCATAAAAGTCAGGGCA
DNA 2: TGCCCTGACTTTTATGCCCAGCCCTG
B2: HBB -31A>G (dsDNA)
DNA 1: CAGGGCTGGGCGTAAAAGTCAGGGCA
DNA 2: TGCCCTGACTTTTACGCCCAGCCCTG
B3: globin pseudogene TATA WT (dsDNA)
DNA 1: CTGCCACACCCACATTATTAGAAAAT
DNA 2: ATTTTCTAATAATGTGGGTGTGGCAG
B4: globin pseudogene -70T>C (dsDNA)
DNA 1: CTGCCACACCCACATTATCAGAAAAT
DNA 2: ATTTTCTGATAATGTGGGTGTGGCAG
B5: CYP2A6 TATA WT (dsDNA)
DNA 1: TTTCAGGCAGTATAAAGGCAAACCAC
DNA 2: GTGGTTTGCCTTTATACTGCCTGAAA
B6: CYP2A6 -48T>G (dsDNA)
DNA 1: TTTCAGGCAGTAGAAAGGCAAACCAC
DNA 2: GTGGTTTGCCTTTCTACTGCCTGAAA
B7: SOD1 TATA WT (dsDNA)
DNA 1: AGGTCTGGCCTATAAAGTAGTCGCGG
DNA 2: CCGCGACTACTTTATAGGCCAGACCT
B8: SOD1 -27A>G (dsDNA)
DNA 1: AGGTCTGGCCTGTAAAGTAGTCGCGG
DNA 2: CCGCGACTACTTTACAGGCCAGACCT
B9: MBL2 TATA WT (dsDNA)
DNA 1: CATCTATTTCTATATAGCCTGCACCC
DNA 2: GGGTGCAGGCTATATAGAAATAGATG
B10: MBL2 -35T>C (dsDNA)
DNA 1: CATCTATTTCTACATAGCCTGCACCC
DNA 2: GGGTGCAGGCTATGTAGAAATAGATG
B11: TPI TATA WT (dsDNA)
DNA 1: CGCGGCGCTCTATATAAGTGGGCAGT
DNA 2: ACTGCCCACTTATATAGAGCGCCGCG
B12: TPI -24T>G (dsDNA)
DNA 1: CGCGGCGCTCTATAGAAGTGGGCAGT
DNA 2: ACTGCCCACTTCTATAGAGCGCCGCG
B13: HBB -30T>A (dsDNA)
DNA 1: CAGGGCTGGGCAAAAAAGTCAGGGCA
DNA 2: TGCCCTGACTTTTTTGCCCAGCCCTG
B14: FIX TATA WT (dsDNA)
DNA 1: ACAGCTCAGCTTGTACTTTGGTACAA
DNA 2: TTGTACCAAAGTACAAGCTGAGCTGT
B15: IL1B TATA WT (dsDNA)
DNA 1: TTTTGAAAGCCATAAAAACAGCGAGG
DNA 2: CCTCGCTGTTTTTATGGCTTTCAAAA
B16: IL1B -31C>T (dsDNA)
DNA 1: TTTTGAAAGCTATAAAAACAGCGAGG
DNA 2: CCTCGCTGTTTTTATAGCTTTCAAAA
B17: TF TATA WT (-21C) (dsDNA)
DNA 1: GCCGGCCCTTTATAGCGCGCGGGGCA
DNA 2: TGCCCCGCGCGCTATAAAGGGCCGGC
B18: TF -21C>T (dsDNA)
DNA 1: GCCGGCCCTTTATAGTGCGCGGGGCA
DNA 2: TGCCCCGCGCACTATAAAGGGCCGGC
B19: NOS2A TATA WT (dsDNA)
DNA 1: ATGGGGTGAGTATAAATACTTCTTGG
DNA 2: CCAAGAAGTATTTATACTCACCCCAT
B20: NOS2A -21T>C (dsDNA)
DNA 1: ATGGGGTGAGTATAAATACCTCTTGG
DNA 2: CCAAGAGGTATTTATACTCACCCCAT
B21: HBB -30T>C (dsDNA)
DNA 1: CAGGGCTGGGCACAAAAGTCAGGGCA
DNA 2: TGCCCTGACTTTTGTGCCCAGCCCTG
B22: HBB -29A>G (dsDNA)
DNA 1: CAGGGCTGGGCATGAAAGTCAGGGCA
DNA 2: TGCCCTGACTTTCATGCCCAGCCCTG
B23: HBB -28A>G (dsDNA)
DNA 1: CAGGGCTGGGCATAGAAGTCAGGGCA
DNA 2: TGCCCTGACTTCTATGCCCAGCCCTG
B24: HBB -28A>C (dsDNA)
DNA 1: CAGGGCTGGGCATACAAGTCAGGGCA
DNA 2: TGCCCTGACTTGTATGCCCAGCCCTG
B25: HBB -27A>T (dsDNA)
DNA 1: CAGGGCTGGGCATAATAGTCAGGGCA
DNA 2: TGCCCTGACTATTATGCCCAGCCCTG
B26: HBD TATA WT (dsDNA)
DNA 1: ACAGGACCAGCATAAAAGGCAGGGCA
DNA 2: TGCCCTGCCTTTTATGCTGGTCCTGT
B27: HBD -31A>G (dsDNA)
DNA 1: ACAGGACCAGCGTAAAAGGCAGGGCA
DNA 2: TGCCCTGCCTTTTACGCTGGTCCTGT

Target: TBP (TATA-binding protein, hTBP) (Homo sapiens, UniProt P20226 1-339)
Sequence (P20226 whole entry): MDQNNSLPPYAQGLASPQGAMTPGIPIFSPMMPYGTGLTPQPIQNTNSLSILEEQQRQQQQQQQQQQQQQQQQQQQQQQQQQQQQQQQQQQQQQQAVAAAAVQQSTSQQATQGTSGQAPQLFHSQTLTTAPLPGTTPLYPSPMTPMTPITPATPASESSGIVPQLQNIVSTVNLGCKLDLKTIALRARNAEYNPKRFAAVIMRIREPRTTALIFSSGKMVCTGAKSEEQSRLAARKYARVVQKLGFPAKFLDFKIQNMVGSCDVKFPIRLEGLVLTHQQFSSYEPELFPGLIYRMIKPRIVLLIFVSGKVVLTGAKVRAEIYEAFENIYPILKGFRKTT
Test: EMSA; Fixed active TBP (typically 0.3 nM) titrated with 32P dsDNA to equilibrium; buffer, salt, pH and temperature not given in the material
Conditions: protein: recombinant; label: 32P both strands; blunt

| Binder | Kd [nM] |
| --- | --- |
| B1 | 44 ± 3 |
| B2 | 99 ± 9 |
| B3 | 152 ± 6 |
| B4 | 112 ± 6 |
| B5 | 17 ± 4 |
| B6 | 80 ± 20 |
| B7 | 40 ± 8 |
| B8 | 170 ± 30 |
| B9 | 28 ± 4 |
| B10 | 58 ± 9 |
| B11 | 4.8 ± 0.7 |
| B12 | 150 ± 20 |
| B13 | 116 ± 5 |
| B14 | 510 ± 60 |
| B15 | 29 ± 4 |
| B16 | 7 ± 1 |
| B17 | 72 ± 9 |
| B18 | 26 ± 3 |
| B19 | 1.8 ± 0.2 |
| B20 | 1.6 ± 0.3 |
| B21 | 111 ± 8 |
| B22 | 390 ± 20 |
| B23 | 87 ± 8 |
| B24 | 300 ± 20 |
| B25 | 64 ± 3 |
| B26 | 46 ± 5 |
| B27 | 120 ± 10 |
